Assay results: US20090074766A1, “Methods of inhibiting HIV-2 infection” (priority 2007, published 2009)
Values joined by “and” are separate entries in the source; they are usually repeats but may differ in a detail not shown here. Equal entries are not always repeated.

Assays:
Assay type in all cases: cell-based
[1] = test system: primary R5 HIV-1 isolates; experiment: Whole virus replication (neutralization) assay in PBMC, p24 ELISA; conditions: variety of primary R5 strains (FIG. 1)
Procedure: The data reflect the median values from 8 or more independent assays. The genetic subtypes of the viruses are indicated in parentheses.
Replication of authentic HIV-1 is measured in activated peripheral blood mononuclear cells (PBMCs) using the monocyte/macrophage-tropic HIV-1 clone, JRFL (HIV-1JRFL), for these studies.
PBMCs are isolated from 4 separate donors (Leukopacks) by centrifugation on a Ficoll gradient. CD8 cells are depleted using RosetteSep CD8 Depletion Cocktail (#15663, StemCell Research, Vancouver, BC). […]
Serial dilutions of virus are tested in quadruplicate on activated PBMCs (1.4×10^5 PBMC/well). […] Virus titer is determined by the method of Reed and Muench (Table 11, see below). […]
The percent inhibition is derived as follows [1−(p24 levels in the presence of drug/p24 levels in the absence of drug)]×100. IC50 values are determined by fitting the inhibition data with a non-linear, four-parameter, variable slope equation (GraphPad Prism, ver. 4.02; GraphPad Software, San Diego, Calif.). […]
Serial dilutions of virus are tested in quadruplicate on activated PBMCs (1.4×10^5 PBMC/well). […] Virus titer is determined by the method of Reed and Muench (Table 11).

R5 HIV-2 A2270 = experiment: Inhibition of replication in PBMC cultures, RT activity readout: HIV-2 A2270
Procedure: (§1) Viruses: All virus isolates were grown and titered exclusively in stimulated PBMC as described previously. […] The HIV-2 isolates used in this study have been previously described (Owen, S. M., Ellenberger, D., Rayfield, M., Wiktor, S., Michel, P., Grieco, M. H., Gao, F., Hahn, B. H., and Lai, R. B. 1998. Genetically Divergent Strains of Human Immunodeficiency Virus Type 2 Use Multiple Coreceptors for Entry. J Virol 72:5425-5432) and were obtained from the NIH AIDS Research and Reference Reagent Program.
(§2) PA14 (Lot # DF-021204) was produced for reagent use in the Research & Development laboratories of Progenics Pharmaceuticals Inc.
(§3) Inhibition of HIV-1 and HIV-2 replication in PBMC cultures: PBMC were isolated from 34 healthy blood donors with Ficoll-Hypaque (all media from Cellgro, Herndon, Va.) and depleted of CD8+ cells using RosetteSep CD8 depletion cocktail (StemCell Technologies) according to the manufacturer's instructions. Equal numbers of cells from each donor were then separately stimulated with 5 ug phytohemagglutinin/ml (Sigma, St. Louis, Mo.) or with surface-immobilized anti-CD3 antibody OKT3 in RPMI 1640 medium containing 10% fetal calf serum, 100 Units of interleukin-2/ml (NIH AIDS Research and Reference Reagent Program), glutamine, and antibiotics (PBMC culture medium) as previously described. After 72 hours, equal numbers of PBMC stimulated by one of these two methods from each donor were combined for use in infection assays as follows. […] The virus inoculum was adjusted to 400 to 2,000 times the TCID50 per ml in PBMC culture medium, and a 50-ul aliquot was added to each culture. The inhibitory doses refer to the concentrations of the agents present at this point in the culture, when virus, cells, and inhibitors were all present at their final concentrations. Reverse Transcriptase (RT) activity was measured on Day 7 post infection (pi) for HIV-1 and Day 10 pi for HIV-2 by the Reverse Transcriptase Assay, Colorimetric kit, #11 468 120 910, Roche (Switzerland) according to the manufacturer's instructions with the following exception: neither ultracentrifugation nor PEG precipitation of the culture supernatants was performed before viral lysis.
(§4) The inhibition data were analyzed using GraphPad Prism software (GraphPad Software, San Diego, Calif.). A 4-parameter logistic fit was used calculate the concentration of inhibitor that afforded a 50% and a 90% reduction in RT activity. […] The % inhibitions where best-fit curve reached a top plateau, also as calculated by GraphPad Prism software, are reported as well as maximum percent inhibition (MPI). […] Inhibition curves with a poor sigmoid fit (R^2<0.7) were excluded from data analysis.

R5 HIV-2 310340 = experiment: Inhibition of replication in PBMC cultures, RT activity readout: HIV-2 310340
Procedure: as §1, §2, §3, §4

B1: PRO 140: humanized IgG4,κ anti-CCR5 monoclonal antibody, humanized version of murine mAb PA14 (antibody, chains of the INN, looked up, V domains shown)
VH: EVQLVESGGGLVKPGGSLRLSCAASGYTFSNYWIGWVRQAPGKGLEWIGDIYPGGNYIRNNEKFKDKTTLSADTSKNTAYLQMNSLKTEDTAVYYCGSSFGSNYVFAWFTYWGQGTLVTVSS
VL: DIVMTQSPLSLPVTPGEPASISCRSSQRLLSSYGHTYLHWYLQKPGQSPQLLIYEVSNRFSGVPDRFSGSGSGTDFTLKISRVEAEDVGVYYCSQSTHVPLTFGQGTKVEIK
IC90 [1]: 3 to 4 µg/mL | EC50 (median) (R5 HIV-2 A2270; HIV-2 A2270, R5): 0.12 µg/mL | EC90 (median) (R5 HIV-2 A2270; HIV-2 A2270, R5): 3.5 µg/mL | MPI (maximum percent inhibition) (R5 HIV-2 A2270; R5 HIV-2 A2270, individual assays (Source)): 103% and 101% and 97% | MPI, Median (R5 HIV-2 A2270; R5 HIV-2 A2270, median of assays): 101% | EC50 (median) (R5 HIV-2 310340; HIV-2 310340, R5): 4.7 µg/mL | EC90 (median) (R5 HIV-2 310340; HIV-2 310340, R5): >100 µg/mL | MPI: Maximum percent inhibition as determined from the plateau of the sigmoidal curve fit (R5 HIV-2 310340; Virus: R5 HIV-2 310340, individual experiments (Source)): 87% and 74% and 90% and 78% | MPI, Median (R5 HIV-2 310340; Virus: R5 HIV-2 310340, median of experiments, poor curve fits (R^2 < 0.7) excluded): 83%
